Reference: patent US20220332804A1 (CSL INNOVATION, published 2022)

Experiments:
Assay in all cases: SPR, mAb captured, C2 mutant analyte;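 also: Anti-C2 mAbs captured on goat anti-human IgG Biacore CM5 chips, alanine or serine C2 surface mutants flowed over at 37 °C, double-referenced sensorgrams fitted to a 1:1 binding model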
[1] = target: T1, human C2 Y328A (human, UniProt P06681 21-752)
T1 sequence: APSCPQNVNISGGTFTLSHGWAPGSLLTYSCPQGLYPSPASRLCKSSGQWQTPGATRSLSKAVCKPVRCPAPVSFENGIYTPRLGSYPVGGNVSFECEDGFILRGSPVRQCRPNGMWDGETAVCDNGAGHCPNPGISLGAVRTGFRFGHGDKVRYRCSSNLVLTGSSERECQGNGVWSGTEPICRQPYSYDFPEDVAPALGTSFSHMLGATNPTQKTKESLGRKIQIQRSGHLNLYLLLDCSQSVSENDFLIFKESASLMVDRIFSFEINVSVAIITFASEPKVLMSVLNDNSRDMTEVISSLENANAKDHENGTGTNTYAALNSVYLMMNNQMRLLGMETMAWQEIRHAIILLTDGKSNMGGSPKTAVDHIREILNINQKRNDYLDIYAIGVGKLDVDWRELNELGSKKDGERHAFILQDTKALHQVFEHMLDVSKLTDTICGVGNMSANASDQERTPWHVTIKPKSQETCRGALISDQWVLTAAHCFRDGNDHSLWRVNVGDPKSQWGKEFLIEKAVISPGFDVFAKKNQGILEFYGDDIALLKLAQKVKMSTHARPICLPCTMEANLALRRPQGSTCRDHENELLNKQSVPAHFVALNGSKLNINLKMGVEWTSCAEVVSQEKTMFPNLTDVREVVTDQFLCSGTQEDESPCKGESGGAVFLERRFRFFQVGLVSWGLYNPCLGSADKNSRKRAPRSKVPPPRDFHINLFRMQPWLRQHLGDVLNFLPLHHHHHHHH

[2] = target: T2, human C2 R688A (human, UniProt P06681 21-752)
T2 sequence: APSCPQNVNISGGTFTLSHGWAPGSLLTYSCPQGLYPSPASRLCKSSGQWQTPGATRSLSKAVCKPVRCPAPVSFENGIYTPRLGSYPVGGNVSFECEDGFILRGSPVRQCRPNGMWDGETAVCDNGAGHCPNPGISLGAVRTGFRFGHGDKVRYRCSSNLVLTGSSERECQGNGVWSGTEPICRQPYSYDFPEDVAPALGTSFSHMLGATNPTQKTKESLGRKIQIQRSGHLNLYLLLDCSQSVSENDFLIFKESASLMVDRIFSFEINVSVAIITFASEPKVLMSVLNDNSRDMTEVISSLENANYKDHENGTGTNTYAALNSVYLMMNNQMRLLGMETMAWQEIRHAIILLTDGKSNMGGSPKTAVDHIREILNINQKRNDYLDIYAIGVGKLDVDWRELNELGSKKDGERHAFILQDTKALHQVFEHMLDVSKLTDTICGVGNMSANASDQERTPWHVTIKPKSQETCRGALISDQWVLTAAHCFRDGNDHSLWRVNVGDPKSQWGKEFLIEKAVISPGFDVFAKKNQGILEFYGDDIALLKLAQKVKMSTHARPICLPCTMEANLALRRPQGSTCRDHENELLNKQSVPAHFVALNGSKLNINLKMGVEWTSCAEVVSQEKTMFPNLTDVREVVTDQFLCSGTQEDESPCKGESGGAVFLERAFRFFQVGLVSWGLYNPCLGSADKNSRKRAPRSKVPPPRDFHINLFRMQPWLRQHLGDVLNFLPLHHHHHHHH

[3] = target: T3, human C2 D282A (human, UniProt P06681 21-752)
T3 sequence: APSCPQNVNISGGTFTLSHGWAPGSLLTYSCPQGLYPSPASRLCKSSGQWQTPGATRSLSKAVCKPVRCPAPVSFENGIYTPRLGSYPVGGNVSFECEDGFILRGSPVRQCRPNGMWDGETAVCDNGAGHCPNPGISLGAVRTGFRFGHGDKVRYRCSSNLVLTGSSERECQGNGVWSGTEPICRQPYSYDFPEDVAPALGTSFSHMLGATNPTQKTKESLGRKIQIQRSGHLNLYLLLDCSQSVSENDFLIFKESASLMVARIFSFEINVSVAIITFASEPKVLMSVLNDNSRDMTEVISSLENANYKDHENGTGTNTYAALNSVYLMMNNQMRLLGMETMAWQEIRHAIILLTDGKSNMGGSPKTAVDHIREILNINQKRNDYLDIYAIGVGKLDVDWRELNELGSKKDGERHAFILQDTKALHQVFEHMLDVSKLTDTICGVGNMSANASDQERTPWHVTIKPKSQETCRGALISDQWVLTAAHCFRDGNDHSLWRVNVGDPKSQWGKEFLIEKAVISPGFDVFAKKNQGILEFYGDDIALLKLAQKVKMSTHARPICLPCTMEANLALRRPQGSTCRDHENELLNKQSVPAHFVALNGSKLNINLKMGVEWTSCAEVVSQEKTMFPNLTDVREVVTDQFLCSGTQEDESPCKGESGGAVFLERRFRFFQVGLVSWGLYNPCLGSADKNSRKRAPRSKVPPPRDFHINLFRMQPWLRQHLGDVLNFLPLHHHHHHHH

[4] = target: T4, human C2 E476A (human, UniProt P06681 21-752)
T4 sequence: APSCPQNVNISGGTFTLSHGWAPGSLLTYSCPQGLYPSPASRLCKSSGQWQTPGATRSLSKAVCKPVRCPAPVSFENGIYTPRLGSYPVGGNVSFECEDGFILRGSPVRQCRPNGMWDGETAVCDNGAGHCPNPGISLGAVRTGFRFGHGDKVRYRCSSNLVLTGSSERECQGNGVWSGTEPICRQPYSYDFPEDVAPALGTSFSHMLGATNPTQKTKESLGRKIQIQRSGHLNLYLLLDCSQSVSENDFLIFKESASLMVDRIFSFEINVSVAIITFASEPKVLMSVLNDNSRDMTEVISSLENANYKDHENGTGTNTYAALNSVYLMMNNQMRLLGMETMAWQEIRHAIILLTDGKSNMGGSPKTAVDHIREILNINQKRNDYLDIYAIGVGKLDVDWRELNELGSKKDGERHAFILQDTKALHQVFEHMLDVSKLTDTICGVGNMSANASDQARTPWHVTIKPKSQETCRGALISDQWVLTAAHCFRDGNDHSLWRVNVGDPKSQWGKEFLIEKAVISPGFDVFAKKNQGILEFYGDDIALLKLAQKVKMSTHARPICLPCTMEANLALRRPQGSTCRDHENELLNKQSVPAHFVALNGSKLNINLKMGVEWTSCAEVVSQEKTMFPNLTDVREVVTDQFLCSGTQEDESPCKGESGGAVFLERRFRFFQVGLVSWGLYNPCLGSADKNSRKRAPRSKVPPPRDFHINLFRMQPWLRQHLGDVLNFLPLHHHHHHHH

Kd [1]: 196 nM
Kd [2]: 96.2 nM
binding result [3]: no binding
Kd [4]: 58.6 nM
B1: RF16-214 (antibody, V domains shown)
VH: EVQLLESGGGLVQPGGSLRLSCAASGFTFSWYQMMWVRQAPGKGLEWVSRIYPSGGGTAYADSVKGRFTISRDNSKNTLYLQMNSLRAEDTAVYYCARDAGYGDNWGQGTLVTVSS
VL: QSALTQPPSVSVSPGQTASITCSGDKLGEKYASWYQQKAGQSPVMVIYQDRKRPSGIPERFSGSNSGNTATLTISGTQAMDEADYYCQAWDTRAVVFGGGTKLTVLG
